In US20030092164A1:

Assays:
TACI receptor = test: I^125-labeled ZTNF4 binding to baby hamster kidney cells transfected with a TACI expression vector; Scatchard analysis
Ztnfr12 (human) = test: I^125-labeled ZTNF4 binding to baby hamster kidney cells transfected with Ztnfr12; Scatchard analysis

- Kd (TACI receptor): 1.25 nM
- Kd (Ztnfr12 (human)): 1 nM
Substance: ZTNF4 (ligand)
